Results taken from US20250346644A1 (LATTICON SUZHOU BIOPHARMACEUTICALS, published 2025).
Numbering of substitutions follows the chain as printed. Names and notes keep the numbering of the source. Where two headings read alike, the source gives them in different places. Blank lines part the entries; values can stand above or below the binder they belong to.

Columns and labels:
[1] = target: T1, hIL2Rα/β complex (human, UniProt P01589 22-213; P14784 27-239); assay: BLI (ForteBio): biotin-CD25 on an SA sensor, CD122 step, then sample (100 nM by the text) together with CD122
T1 construct: assembled in the BLI assay from bought subunits; also called hIL2Rα/O complex
T1 sequence (looked up) 1: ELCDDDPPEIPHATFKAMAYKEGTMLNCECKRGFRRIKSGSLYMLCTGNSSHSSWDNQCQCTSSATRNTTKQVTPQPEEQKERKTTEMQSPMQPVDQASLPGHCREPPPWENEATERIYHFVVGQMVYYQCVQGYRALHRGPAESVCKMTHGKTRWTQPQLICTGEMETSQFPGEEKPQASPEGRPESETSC
T1 sequence (looked up) 2: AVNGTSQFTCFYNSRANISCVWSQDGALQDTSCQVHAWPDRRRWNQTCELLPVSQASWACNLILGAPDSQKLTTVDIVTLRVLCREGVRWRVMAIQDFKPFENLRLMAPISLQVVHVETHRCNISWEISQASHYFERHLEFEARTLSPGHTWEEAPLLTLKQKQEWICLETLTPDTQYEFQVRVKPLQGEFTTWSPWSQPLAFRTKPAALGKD
Description: (§1) The specific method was described as follows: biotin-CD25 (Acro) was diluted in 1×PBS to 5 μg/mL and added to a 96-well black-wall plate at 200 μL per well; hIL2Rβ (Acro) was diluted to 5 μg/mL in 1×PBS and also added to the 96-well black-wall plate at 200 μL per well. […] The 96-well black-wall plate containing the testing samples and a SA sensor was uploaded onto the analyzer, and a program was inputted. The SA sensor was firstly immersed into the well with biotin-CD25 (Acro) and then with hIL2Rβ (Acro) till saturation. After that, the sensor was immersed in the testing sample well and the binding signal was recorded in real-time. At the end of each association-dissociation cycle, the sensor was regenerated by immersing in 500 mM phosphate buffer and then started with the next cycle of detection.

[2] = target: T2, high-affinity IL2R expressed on the surface of CTLL-2 cells; assay: cell-based or functional assay
T2 sequence (P01590 whole entry, species assumed, looked up): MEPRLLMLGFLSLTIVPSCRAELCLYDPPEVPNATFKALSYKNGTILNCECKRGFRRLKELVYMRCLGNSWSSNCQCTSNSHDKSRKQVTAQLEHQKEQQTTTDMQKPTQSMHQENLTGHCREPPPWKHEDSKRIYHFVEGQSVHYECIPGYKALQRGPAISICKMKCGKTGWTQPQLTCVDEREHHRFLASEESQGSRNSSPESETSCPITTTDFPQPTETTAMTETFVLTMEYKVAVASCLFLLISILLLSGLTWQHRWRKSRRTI
T2 sequence (P16297 whole entry, species assumed, looked up): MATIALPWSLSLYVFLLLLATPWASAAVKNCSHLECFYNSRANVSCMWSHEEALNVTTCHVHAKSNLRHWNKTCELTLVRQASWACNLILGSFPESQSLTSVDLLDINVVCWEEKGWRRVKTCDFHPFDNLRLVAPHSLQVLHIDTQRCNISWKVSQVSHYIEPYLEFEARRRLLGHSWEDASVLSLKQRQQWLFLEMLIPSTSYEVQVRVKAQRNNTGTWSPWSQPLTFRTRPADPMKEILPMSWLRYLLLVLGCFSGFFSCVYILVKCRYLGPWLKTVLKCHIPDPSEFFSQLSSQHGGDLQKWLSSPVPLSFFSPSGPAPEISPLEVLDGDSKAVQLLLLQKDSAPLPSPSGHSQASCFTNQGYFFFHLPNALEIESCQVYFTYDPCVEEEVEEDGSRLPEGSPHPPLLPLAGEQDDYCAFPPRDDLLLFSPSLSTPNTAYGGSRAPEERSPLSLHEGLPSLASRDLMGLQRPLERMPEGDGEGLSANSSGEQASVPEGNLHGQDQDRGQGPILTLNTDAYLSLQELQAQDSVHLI
T2 sequence (P34902 whole entry, species assumed, looked up): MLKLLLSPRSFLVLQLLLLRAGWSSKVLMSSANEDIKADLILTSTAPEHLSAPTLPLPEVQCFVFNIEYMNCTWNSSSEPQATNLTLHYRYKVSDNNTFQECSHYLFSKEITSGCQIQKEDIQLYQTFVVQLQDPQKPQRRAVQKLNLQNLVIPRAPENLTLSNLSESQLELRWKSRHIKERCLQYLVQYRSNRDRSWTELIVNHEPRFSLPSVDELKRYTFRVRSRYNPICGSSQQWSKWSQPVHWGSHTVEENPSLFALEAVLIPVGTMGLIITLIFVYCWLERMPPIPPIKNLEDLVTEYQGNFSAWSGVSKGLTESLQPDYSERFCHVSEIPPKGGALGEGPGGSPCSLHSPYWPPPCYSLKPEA

[3] = target: T3, hIL2Rα/β/γ complex (human, UniProt P01589 22-213; P14784 27-239; P31785 23-254); assay: BLI (ForteBio): biotin-CD25 on an SA sensor, CD122 step, then sample (100 nM by the text) together with CD132
T3 construct: assembled in the BLI assay from bought subunits; also called hIL2Rα/o/γ complex
T3 sequence (looked up) 1: T1 sequence (looked up) 1
T3 sequence (looked up) 2: T1 sequence (looked up) 2
T3 sequence (looked up) 3: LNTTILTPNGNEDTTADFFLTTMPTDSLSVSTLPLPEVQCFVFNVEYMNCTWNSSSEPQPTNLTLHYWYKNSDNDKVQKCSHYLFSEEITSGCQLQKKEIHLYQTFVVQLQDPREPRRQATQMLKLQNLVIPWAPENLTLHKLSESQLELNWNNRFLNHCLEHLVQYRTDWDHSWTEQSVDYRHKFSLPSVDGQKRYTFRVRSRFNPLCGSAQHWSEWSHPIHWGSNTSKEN
Description: as §1

[4] = target: T4, hIL2Rα (hCD25) (human, UniProt P01589 22-213, limits assumed); assay: BLI (ForteBio): biotin-CD25 on an SA sensor, buffer step, then sample (100 nM by the text)
T4 construct: bought recombinant protein; also called hCD25 (Acro); biotin-CD25 (Acro)
T4 sequence (looked up): T1 sequence (looked up) 1

[5] = target: T3, hIL2Rα/β/γ complex; assay: BLI (ForteBio): biotin-CD25 on an SA sensor, CD122 step, then sample together with CD132
Description: as §1

[6] = target: T1, hIL2Rα/β complex; assay: BLI (ForteBio): biotin-CD25 on an SA sensor, CD122 step, then sample together with CD122
Description: as §1

[7] = target: T4, hIL2Rα (hCD25); assay: BLI (ForteBio): biotin-CD25 on an SA sensor, buffer step, then sample
[8] = target: T2, high-affinity IL2R expressed on the …; assay: cell-based or functional assay; remark: listed apart in the source
[9] = target: T5, hIL2Rβ/γ on CD25-knockout NK-92 cells (human, UniProt P14784 27-551; P31785 23-369); assay: cell-based or functional assay
T5 sequence (looked up) 1: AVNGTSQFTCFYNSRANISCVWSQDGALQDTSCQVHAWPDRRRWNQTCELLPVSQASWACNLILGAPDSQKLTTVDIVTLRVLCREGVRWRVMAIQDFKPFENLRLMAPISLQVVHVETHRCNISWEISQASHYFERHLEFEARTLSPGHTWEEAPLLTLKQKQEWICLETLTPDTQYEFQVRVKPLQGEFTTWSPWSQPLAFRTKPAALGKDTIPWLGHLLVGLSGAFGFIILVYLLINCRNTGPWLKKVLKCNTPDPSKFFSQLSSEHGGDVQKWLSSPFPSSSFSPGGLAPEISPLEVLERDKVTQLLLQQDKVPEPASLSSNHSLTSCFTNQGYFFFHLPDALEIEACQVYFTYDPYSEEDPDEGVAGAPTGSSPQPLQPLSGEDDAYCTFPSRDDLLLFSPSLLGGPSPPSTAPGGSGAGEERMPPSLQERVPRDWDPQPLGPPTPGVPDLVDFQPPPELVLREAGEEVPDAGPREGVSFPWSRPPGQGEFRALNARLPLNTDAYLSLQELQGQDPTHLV
T5 sequence (looked up) 2: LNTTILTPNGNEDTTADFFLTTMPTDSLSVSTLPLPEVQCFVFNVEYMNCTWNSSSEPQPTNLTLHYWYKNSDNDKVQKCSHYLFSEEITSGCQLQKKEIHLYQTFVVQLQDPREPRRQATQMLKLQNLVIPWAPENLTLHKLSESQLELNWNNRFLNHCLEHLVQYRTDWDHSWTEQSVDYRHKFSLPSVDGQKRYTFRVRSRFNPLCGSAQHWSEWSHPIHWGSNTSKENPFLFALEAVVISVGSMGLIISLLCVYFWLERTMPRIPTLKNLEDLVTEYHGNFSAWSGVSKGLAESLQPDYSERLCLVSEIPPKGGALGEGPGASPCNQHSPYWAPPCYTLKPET

[10] = target: T6, hIL2Rβ (hCD122) (human, UniProt P14784 27-239, limits assumed); assay: ELISA (method of section 2.1.1): sample captured on coated goat anti-human IgG, hCD122 titrated; the x axis is the CD122 concentration
T6 construct: bought recombinant protein; also called hCD122 (Acro)
T6 sequence (looked up): T1 sequence (looked up) 2
Description: ELISA was performed as follows: a goat anti-human IgG (Jackson Immunoresearch) was diluted to 1 μg/mL in 1×PBS and added to an ELISA plate at 100 μL/well, and then incubated at 4° C. overnight. The plate was washed with PBS and then blocked at room temperature for 1 hour after adding the blocking solution (PBST containing 1% BSA) to each well. […] The plate was washed with PBST; the HRP-labeled anti-6×His-tag secondary antibody (Proteintech) diluted at a ratio of 1:10,000 in blocking solution was then added to each well and incubated at room temperature for 1 hour. The plate was washed with PBST; the TMB chromogenic solution (Thermo) was added to each well and incubated in dark for 3-10 minutes at room temperature. The stop solution (2 M HCl) was added to each well, and OD values at a wavelength of 450-570 nm were read using a multimode microplate reader (Varioskan, Thermo).

[11] = target: T2, high-affinity IL2R expressed on the …; assay: cell-based or functional assay; remark: listed apart in the source
[12] = target: T4, hIL2Rα (hCD25); assay: ELISA (method of section 4.2.1): sample captured on coated goat anti-human IgG, hCD25 titrated; the x axis is the CD25 concentration
[13] = target: T6, hIL2Rβ (hCD122); assay: ELISA (method of section 4.2.1): sample captured on coated goat anti-human IgG, hCD122 titrated; the x axis is the CD122 concentration

B1: hIL2-DM (Δ3, C125L) (ligand)
chain: SSSTKKTQLQLEHLLLDLQMILNGINNYKNPKLTRMLTFKFYMPKKATELKHLQCLEEELGPLEEVLNLAQSKNFHLRPRDLISNIRVIVLELKGSETTFMCEYADETATIVEFLNRWITFLQSIISTLT
notes: first three N-terminal residues (APT) deleted; also called hIL2-DM (Δ3, 125L); hIL2-DM (Δ3, C125L) mutein
binding result [1]: binds
Activity in Promoting CTLL-2 Cell Proliferation (EC50, nM) [2]: 0.156 nM
binding result [3]: binds
binding result [4]: binds

B3: IC-Cy08 (other)
heavy: APTSSSTKKTQLQLEHLLLDLQMILNGINNYKNPKLTRMLTFKFYMPKKATELKHLQCLEEELGCLEEVLNLAQSKNFHLRPRDLISNIRVIVLELKGSETTFMCEYADETATIVEFLNRWITFCQSIISTLTGGGGSGGGGSGGGGSGGGGSQVQLVQSGAEVKKPGATVKISCKVSGDTITAYYMHWVRQAPGQGLEWIGRIDPEDDSTKYAENFKGRVTITADTSTDTAYMELSSLRSEDTAVYYCTTVTCYYSRELRWFAYWGQGTLVTVSS
VL: DIVLTQSPATLSLSPGERATLSCQASQDIGNYLSWYQQKPGQAPRLLIYSATSLASGIPARFSGSRSGTDFTLTISSLEPEDFAVYYCLQHYSTPYTFGQGTKLEIK
notes: hIL-2/anti-IL-2 antibody fusion protein, disulfide IL:65-H:97; also called H6K3(H)-Cy08; H6K3(H)-Cy-08
binding result [10]: binds
Activity in Promoting CTLL-2 Cell Proliferation (EC50, nM) [2]: 0.425 nM
STAT5 phosphorylation in CTLL-2 cells by flow cytometry, EC50 [11]: 0.234 nM

The remaining lines, values ahead:

binding result [5]: no binding
binding result [6]: no binding
Activity in Promoting CTLL-2 Cell Proliferation (EC50, nM) [2]: 11.2 nM
binding result [7]: no binding
Activity in Promoting CTLL-2 Cell Proliferation (EC50, nM) [8]: 9.17 nM
Activity in Promoting NK-92 (CD25-KO) Cell Proliferation (EC50, nM) [9]: 0.065 nM
B2: K2G11-Cy05 (other)
chain: SSSTKKTQLQLEHLLLDLQMILNGINNYKNPKLTRMLTFKFYMPKKATELKHLQCLEEELGPLEEVLNLAQSKNFHLRPRDLISNIRVIVLELKGSETCFMCEYADETATIVEFLNRWITFLQSIISTLTGGGGSGGGGSGGGGSGGGGSQVQLVQSGAEVKKPGATVKISCKVSGDTITAYYMHWVRQAPGQGLEWIGRIDPDDDSTKYAENFKGRVTITADTSTDTAYMELSSLRSEDTAVYYCTTITFLYSRELRWFAYWGQGTLVTVSSASTKGPSVFPLAPSSKSTSGGTAALGCLVKDYFPEPVTVSWNSGALTSGVHTFPAVLQSSGLYSLSSVVTVPSSSLGTQTYICNVDHKPSNTKVDKRVEPKSCDKTHTCPPCPAPEFEGGPSVFLFPPKPKDTLMISRTPEVTCVVVDVSHEDPEVQFNWYVDGVEVHNAKTKPREEQYNSTYRVVSVLTVLHQDWLNGKEYKCKVSNKALPASIEKTISKAKGQPREPQVYTLPPSRDELTKNQVSLTCLVKGFYPSDIAVEWESNGQPENNYKTTPPVLDSDGSFFLYSKLTVDKSRWQEGNVFSCSVMHEALHNHYTQKSLSLSPGK
VL: B3 VL with D28Y, G30S, S67C
modifications: Engineered disulfide between chain 1 Cys99 (IL-2 T102C) and chain 2 Cys67 (S67C), as in Table 32 (LC: C67-HC: C99).
notes: hIL2-DM (Δ3, C125L) fused to the heavy chain of K2G11, disulfide IL:102-L:67

binding result [12]: no binding (tested: 10 µg/mL)
Activity in Promoting CTLL-2 Cell Proliferation (EC50, nM) [2]: 5.77 nM
binding result [13]: binds
B4: K2G11-Cy06 (other)
heavy: SSSTKKTQLQLEHLLLDLQMILNGINNYKNPKLTRMLTFKFYMPKKATELKHLQCLEEELGPLEEVLNLAQSKNFHLRPRDLISNIRVIVLELKGSETCFMCEYADETATIVEFLNRWITFLQSIISTLTGGGGSGGGGSGGGGSGGGGSQVQLVQSGAEVKKPGATVKISCKVSGDTITAYYMHWVRQAPGQGLEWIGRIDPDDDSTKYAENFKGRVTITADTSTDTAYMELSSLRSEDTAVYYCTTITFLYSRELRWFAYWGQGTLVTVSS
VL: B3 VL with D28Y, G30S, G68C
notes: hIL2-DM (Δ3, C125L) fused to the heavy chain of K2G11, disulfide IL:102-L:68
